Biological target: the molecule itself
Experiment: SDS-resistant dimers on SDS-PAGE

B1: HA-SynDIG1 (full-length mouse SynDIG1, N-terminal HA tag) (natural protein, UniProt A2ANU3 1-258, looked up)
chain: MDGIIEQKSVLVHSKISDAGKRNGLINTRNFMAESRDGLVSVYPAPQYQSHRLVASAAPGSLEGGRSEPVQQLLDPNTLQQSVESHYRPNIILYSDGVLRSWGDGVATDCCETTFIEDRSPTKDSLEYPDGKFIDLSGDDIKIHTLSYDVEEEEELQELESDYSSDTESEDNFLMMPPRDHLGLSVFSMLCCFWPLGIAAFYLSHETNKAVAKGDFHQASTSSRRALFLAVLSITIGTGIYVGVAVALIAYLSKNNHL
stoichiometry N: 2
